How the values were obtained:
[1] = tested on: AncSZ; assay: phosphorylation enrichment, bacterial display (enrichment ratio); higher = better substrate or ligand; peptides without Tyr show the background
[2] = biological target: EPHB1 (UniProt P54762); assay: as above
[3] = biological target: EPHB2 (UniProt P29323); assay: as above
[4] = biological target: FGFR1 (UniProt P11362); assay: as above
[5] = biological target: FGFR3 (UniProt P22607); assay: as above
[6] = tested on: Fer (mouse); assay: as above
[7] = biological target: Fes (UniProt P07332); assay: as above
[8] = biological target: Fyn (UniProt P06241); assay: as above
[9] = biological target: Hck (UniProt P08631); assay: as above
[10] = biological target: Jak2 (UniProt O60674); assay: as above
[11] = biological target: MERTK (UniProt Q12866); assay: as above
[12] = tested on: c-Abl (mouse); assay: as above
[13] = tested on: c-Src; assay: as above
[14] = biological target: Grb2 SH2 (UniProt P62993); assay: SH2 binding enrichment of the phosphorylated peptide, bacterial display (enrichment ratio); higher = better substrate or ligand; peptides without Tyr show the background
[15] = biological target: SHP2-C SH2; assay: as above
[16] = biological target: c-Src SH2; assay: as above
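Wherever SH2 binding enrichment of the phosphorylated peptide, bacterial display is given: peptide library displayed on the E. coli surface as eCPX fusions, selected cells deep-sequenced, score is each peptide's frequency after selection divided by its frequency in the input.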
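Wherever phosphorylation enrichment, bacterial display is given: 11-residue human phosphosite peptides and single-mutation variants displayed on the E. coli surface, counted by deep sequencing, each peptide's frequency after selection divided by its frequency in the unselected input library; frequency after pTyr selection over input frequency; kinase dosed for 20-30% of maximal phosphorylation in three min.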

Chain of Fes (P07332 whole entry, looked up): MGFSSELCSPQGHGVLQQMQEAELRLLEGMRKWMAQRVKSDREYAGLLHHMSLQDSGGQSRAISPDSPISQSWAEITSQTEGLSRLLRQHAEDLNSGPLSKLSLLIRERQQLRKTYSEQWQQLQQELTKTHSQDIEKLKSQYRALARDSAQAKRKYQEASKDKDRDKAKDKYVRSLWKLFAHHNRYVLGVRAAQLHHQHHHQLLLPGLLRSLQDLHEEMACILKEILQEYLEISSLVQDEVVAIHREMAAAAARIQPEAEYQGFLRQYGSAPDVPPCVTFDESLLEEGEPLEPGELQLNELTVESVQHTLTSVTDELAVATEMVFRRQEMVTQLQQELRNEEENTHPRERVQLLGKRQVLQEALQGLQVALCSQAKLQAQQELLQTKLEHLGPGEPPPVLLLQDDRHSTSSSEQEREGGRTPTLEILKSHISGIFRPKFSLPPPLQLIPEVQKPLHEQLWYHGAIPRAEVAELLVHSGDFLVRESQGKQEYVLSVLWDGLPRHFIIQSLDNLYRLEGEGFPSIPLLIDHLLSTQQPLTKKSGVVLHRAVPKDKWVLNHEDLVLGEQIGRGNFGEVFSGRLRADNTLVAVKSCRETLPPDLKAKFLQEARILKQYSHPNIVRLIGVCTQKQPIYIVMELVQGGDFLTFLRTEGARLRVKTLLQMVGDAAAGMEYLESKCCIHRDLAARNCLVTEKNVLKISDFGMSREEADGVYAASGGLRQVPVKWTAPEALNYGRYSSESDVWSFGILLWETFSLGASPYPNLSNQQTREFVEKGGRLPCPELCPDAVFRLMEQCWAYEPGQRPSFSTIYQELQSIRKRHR
Chain of Fyn (P06241 whole entry, looked up): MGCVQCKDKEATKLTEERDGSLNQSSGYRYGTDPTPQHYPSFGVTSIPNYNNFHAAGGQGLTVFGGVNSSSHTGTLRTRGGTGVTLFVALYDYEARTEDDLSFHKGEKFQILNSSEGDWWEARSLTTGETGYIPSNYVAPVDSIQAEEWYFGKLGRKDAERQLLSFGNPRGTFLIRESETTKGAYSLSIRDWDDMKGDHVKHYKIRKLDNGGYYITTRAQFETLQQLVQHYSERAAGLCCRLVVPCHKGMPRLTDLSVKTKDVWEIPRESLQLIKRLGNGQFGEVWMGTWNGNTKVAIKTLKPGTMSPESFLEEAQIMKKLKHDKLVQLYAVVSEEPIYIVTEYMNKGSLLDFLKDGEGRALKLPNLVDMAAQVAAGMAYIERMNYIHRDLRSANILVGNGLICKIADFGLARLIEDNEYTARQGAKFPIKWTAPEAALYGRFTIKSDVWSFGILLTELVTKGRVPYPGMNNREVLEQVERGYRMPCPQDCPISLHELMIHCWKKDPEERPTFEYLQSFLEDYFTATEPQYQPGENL
Chain of EPHB2 (P29323 whole entry, looked up): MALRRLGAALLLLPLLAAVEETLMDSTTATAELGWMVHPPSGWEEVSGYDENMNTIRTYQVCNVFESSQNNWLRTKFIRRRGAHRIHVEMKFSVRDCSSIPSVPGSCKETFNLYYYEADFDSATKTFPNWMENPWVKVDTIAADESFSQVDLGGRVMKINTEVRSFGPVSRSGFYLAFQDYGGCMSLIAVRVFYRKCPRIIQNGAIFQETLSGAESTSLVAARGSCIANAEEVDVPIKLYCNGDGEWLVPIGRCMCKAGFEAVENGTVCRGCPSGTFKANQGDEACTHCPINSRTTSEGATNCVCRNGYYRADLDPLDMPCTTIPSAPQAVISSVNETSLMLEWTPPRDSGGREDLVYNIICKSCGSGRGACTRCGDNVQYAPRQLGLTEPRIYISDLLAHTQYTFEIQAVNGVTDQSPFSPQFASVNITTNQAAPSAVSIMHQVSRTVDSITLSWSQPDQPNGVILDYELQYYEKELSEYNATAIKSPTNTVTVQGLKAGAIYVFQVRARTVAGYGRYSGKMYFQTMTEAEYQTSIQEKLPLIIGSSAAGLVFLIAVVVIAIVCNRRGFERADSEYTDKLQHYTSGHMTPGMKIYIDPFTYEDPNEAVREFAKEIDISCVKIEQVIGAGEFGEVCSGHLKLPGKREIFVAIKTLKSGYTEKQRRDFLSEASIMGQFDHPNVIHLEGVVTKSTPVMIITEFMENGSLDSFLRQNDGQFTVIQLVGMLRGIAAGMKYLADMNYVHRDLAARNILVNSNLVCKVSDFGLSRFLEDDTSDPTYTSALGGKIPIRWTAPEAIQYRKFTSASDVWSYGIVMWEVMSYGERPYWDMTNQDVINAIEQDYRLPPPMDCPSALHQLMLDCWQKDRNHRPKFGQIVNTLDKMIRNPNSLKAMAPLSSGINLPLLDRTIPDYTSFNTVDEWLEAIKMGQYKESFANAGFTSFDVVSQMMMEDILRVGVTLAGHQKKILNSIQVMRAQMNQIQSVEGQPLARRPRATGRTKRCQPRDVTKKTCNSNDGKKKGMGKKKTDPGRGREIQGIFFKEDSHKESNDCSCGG
Chain of EPHB1 (P54762 whole entry, looked up): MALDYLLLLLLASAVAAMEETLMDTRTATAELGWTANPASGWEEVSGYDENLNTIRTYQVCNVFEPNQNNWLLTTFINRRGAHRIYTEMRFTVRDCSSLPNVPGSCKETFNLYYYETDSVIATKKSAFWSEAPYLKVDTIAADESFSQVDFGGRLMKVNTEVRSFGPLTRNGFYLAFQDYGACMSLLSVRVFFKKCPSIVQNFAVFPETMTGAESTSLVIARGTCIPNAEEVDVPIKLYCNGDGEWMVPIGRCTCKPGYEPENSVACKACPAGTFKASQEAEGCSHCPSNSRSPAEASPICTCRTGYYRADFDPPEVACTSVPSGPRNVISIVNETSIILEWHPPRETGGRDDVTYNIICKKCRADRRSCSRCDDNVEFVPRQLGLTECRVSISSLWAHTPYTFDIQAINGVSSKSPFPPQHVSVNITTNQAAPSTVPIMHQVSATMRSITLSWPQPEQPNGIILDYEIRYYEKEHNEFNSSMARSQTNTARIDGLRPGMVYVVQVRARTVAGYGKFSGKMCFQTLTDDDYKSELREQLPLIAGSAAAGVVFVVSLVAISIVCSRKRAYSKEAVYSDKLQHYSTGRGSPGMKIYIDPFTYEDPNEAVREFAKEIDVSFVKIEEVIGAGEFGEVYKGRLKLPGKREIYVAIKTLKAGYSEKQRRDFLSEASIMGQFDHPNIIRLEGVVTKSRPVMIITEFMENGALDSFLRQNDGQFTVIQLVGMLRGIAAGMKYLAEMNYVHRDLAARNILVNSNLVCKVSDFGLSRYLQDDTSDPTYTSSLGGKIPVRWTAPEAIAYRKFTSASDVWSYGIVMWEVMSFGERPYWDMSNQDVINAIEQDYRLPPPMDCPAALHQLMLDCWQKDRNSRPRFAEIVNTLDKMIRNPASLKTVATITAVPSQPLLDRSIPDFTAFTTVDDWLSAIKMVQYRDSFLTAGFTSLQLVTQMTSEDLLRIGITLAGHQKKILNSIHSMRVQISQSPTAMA
Chain of Jak2 (O60674 whole entry, looked up): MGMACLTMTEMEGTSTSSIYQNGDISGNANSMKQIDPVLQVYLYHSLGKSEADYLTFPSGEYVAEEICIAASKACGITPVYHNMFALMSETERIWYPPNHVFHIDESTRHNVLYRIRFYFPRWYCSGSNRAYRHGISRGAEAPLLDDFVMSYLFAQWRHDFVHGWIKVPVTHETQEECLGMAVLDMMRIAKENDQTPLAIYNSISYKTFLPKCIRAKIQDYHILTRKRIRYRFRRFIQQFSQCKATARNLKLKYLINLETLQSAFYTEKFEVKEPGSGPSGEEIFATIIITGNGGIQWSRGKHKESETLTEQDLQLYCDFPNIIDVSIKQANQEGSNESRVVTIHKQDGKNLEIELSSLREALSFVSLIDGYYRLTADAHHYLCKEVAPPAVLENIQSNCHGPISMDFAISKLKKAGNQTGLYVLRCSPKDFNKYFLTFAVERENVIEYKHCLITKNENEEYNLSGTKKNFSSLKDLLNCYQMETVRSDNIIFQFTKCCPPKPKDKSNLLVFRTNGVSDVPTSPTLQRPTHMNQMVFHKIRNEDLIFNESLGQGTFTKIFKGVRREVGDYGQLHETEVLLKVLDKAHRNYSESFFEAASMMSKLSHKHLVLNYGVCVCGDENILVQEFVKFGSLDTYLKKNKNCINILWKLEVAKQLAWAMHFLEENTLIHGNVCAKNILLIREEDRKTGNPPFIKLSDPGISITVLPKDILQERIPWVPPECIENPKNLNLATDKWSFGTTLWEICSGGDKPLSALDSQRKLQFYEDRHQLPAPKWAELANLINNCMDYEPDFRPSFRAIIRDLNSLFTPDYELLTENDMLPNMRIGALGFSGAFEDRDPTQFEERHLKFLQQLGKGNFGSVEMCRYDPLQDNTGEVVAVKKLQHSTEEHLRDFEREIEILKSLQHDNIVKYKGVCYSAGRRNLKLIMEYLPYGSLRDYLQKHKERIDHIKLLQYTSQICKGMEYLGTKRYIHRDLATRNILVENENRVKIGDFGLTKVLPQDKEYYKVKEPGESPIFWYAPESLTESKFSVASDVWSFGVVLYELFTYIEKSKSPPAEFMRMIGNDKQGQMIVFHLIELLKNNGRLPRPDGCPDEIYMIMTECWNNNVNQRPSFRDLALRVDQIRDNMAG
Chain of Hck (P08631 whole entry, looked up): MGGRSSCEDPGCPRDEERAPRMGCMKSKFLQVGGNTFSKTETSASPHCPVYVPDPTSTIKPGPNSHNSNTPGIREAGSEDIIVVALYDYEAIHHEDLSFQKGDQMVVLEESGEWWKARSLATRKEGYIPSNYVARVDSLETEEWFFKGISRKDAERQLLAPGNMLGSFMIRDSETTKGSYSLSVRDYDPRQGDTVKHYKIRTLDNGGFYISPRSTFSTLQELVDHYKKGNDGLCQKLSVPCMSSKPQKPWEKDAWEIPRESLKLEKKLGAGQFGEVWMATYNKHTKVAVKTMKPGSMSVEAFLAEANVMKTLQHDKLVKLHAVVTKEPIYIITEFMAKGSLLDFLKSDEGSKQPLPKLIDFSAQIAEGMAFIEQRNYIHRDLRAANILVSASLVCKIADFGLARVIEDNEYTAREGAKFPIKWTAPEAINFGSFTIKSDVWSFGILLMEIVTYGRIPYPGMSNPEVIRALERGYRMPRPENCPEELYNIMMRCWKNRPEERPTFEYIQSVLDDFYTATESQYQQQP

Row | Sequence | phosphorylation enrichment [1] | phosphorylation enrichment [2] | phosphorylation enrichment [3] | phosphorylation enrichment [4] | phosphorylation enrichment [5] | phosphorylation enrichment [6] | phosphorylation enrichment [7] | phosphorylation enrichment [8] | phosphorylation enrichment [9] | phosphorylation enrichment [10] | phosphorylation enrichment [11] | phosphorylation enrichment [12] | phosphorylation enrichment [13] | SH2 binding enrichment [14] | SH2 binding enrichment [15] | SH2 binding enrichment [16]
1 | ICTVDYLLRLQ [RYR1_Y3921] | 1.21 | 0.659 | 0.618 | 0.529 | 0.733 | 0.736 | 1.41 | 0.539 | 0.542 | 1.12 | 0.428 | 0.966 | 0.444 | 0.852 | 0.813 | 0.459
2 | IDDNQYAYLKA [HNF4A_Y286_E285Q] | 0.993 | 0.558 | 0.667 | 2.93 | 1.69 | 1 | 0.91 | 0.668 | 2.12 | 0.753 | 0.876 | 1.02 | 0.48 | 0.87 | 0.898 | 1.47
3 | IDSTPYRQWYE [RPS8_Y109] | 1.28 | 0.455 | 0.501 | 0.521 | 0.753 | 0.51 | 1.05 | 0.492 | 0.514 | 0.79 | 0.424 | 0.608 | 0.606 | 0.731 | 0.814 | 0.771
4 | IEDPFYGNDSD [ACP1_Y133_YF] | 1.51 | 0.782 | 0.65 | 0.643 | 0.966 | 0.755 | 1.55 | 0.556 | 0.628 | 2.17 | 0.487 | 1.1 | 0.75 | 0.942 | 0.855 | 0.529
5 | IENKLCGMSDP [RET_Y1062_Y1062C] | 0.987 | 0.693 | 0.652 | 0.687 | 0.774 | 0.536 | 1.09 | 0.522 | 0.562 | 0.775 | 0.428 | 0.625 | 0.412 | 0.656 | 0.777 | 0.476
6 | IEPCIYIPEDD [XPNPEP3_Y455_G453C] | 1.23 | 0.648 | 0.603 | 0.738 | 0.87 | 0.6 | 1.47 | 0.563 | 0.696 | 1.25 | 0.428 | 0.862 | 0.513 | 1.2 | 0.821 | 0.719
7 | IFGVSYDEYRY [CFTR_Y512] | 0.932 | 0.557 | 0.504 | 0.688 | 0.664 | 0.496 | 1.05 | 0.644 | 0.617 | 0.882 | 0.434 | 0.638 | 1.27 | 0.776 | 0.896 | 1.36
8 | IFQASYFRRGD [LTK_Y676_R673Q_YF] | 1.05 | 0.516 | 0.518 | 0.544 | 0.619 | 0.416 | 1.23 | 0.499 | 0.517 | 1.18 | 0.628 | 0.789 | 0.543 | 0.835 | 0.607 | 0.48
9 | IFRASYFRKGG [ALK_Y1282_YF] | 1.02 | 0.55 | 0.621 | 0.518 | 0.625 | 0.581 | 0.899 | 0.619 | 0.674 | 1.11 | 0.706 | 0.721 | 0.688 | 0.589 | 0.513 | 0.461
10 | IGCHAYGDQYR [IDH1_Y135_R132C] | 1.04 | 0.593 | 0.556 | 0.634 | 0.741 | 0.569 | 1.19 | 0.424 | 0.5 | 0.979 | 0.384 | 0.796 | 0.493 | 0.687 | 0.59 | 0.551
11 | IGGHAYGDQYR [IDH1_Y135_R132G] | 0.52 | 0.405 | 0.368 | 0.364 | 0.382 | 0.448 | 0.59 | 0.382 | 0.428 | 0.431 | 0.357 | 0.386 | 0.36 | 0.776 | 0.548 | 0.416
12 | IGKDLYANNVL [ACTA2_Y296_R292G] | 1.2 | 0.679 | 0.634 | 0.45 | 0.64 | 0.619 | 1.15 | 0.526 | 0.775 | 1.03 | 0.556 | 0.77 | 0.55 | 0.844 | 0.574 | 0.535
13 | IGLHAYGDQYR [IDH1_Y135_R132L] | 0.681 | 0.469 | 0.487 | 0.46 | 0.598 | 0.48 | 0.834 | 0.498 | 0.529 | 0.563 | 0.426 | 0.561 | 0.473 | 0.847 | 0.599 | 0.469
14 | IGRHAYGDQYR [IDH1_Y135] | 0.56 | 0.434 | 0.406 | 0.398 | 0.447 | 0.417 | 0.599 | 0.371 | 0.327 | 0.534 | 0.314 | 0.462 | 0.381 | 1.03 | 0.681 | 0.657
15 | IHETTYKSIMK [ACTA1_Y281_N282K] | 0.364 | 0.324 | 0.33 | 0.373 | 0.472 | 0.372 | 0.583 | 0.309 | 0.359 | 0.692 | 0.331 | 0.458 | 0.384 | 0.804 | 3.31 | 0.55
16 | IHHIDYFKKTT [FGFR1_Y653_YF] | 0.718 | 0.36 | 0.385 | 0.481 | 0.642 | 0.398 | 0.822 | 0.561 | 0.52 | 0.613 | 0.444 | 0.501 | 0.545 | 0.585 | 0.526 | 0.526
17 | IIGNGYFFRVF [MYBPC3_Y1135_YF] | 0.844 | 0.433 | 0.461 | 0.334 | 0.538 | 0.394 | 0.98 | 0.258 | 0.33 | 0.956 | 0.28 | 0.692 | 0.288 | 0.815 | 0.766 | 0.453

Row | Sequence | phosphorylation enrichment [1] | phosphorylation enrichment [2] | phosphorylation enrichment [3] | phosphorylation enrichment [4] | phosphorylation enrichment [5] | phosphorylation enrichment [6] | phosphorylation enrichment [7] | phosphorylation enrichment [8] | phosphorylation enrichment [9] | phosphorylation enrichment [10] | phosphorylation enrichment [11] | phosphorylation enrichment [12] | phosphorylation enrichment [13] | SH2 binding enrichment [14] | SH2 binding enrichment [15] | SH2 binding enrichment [16]
18 | IKELTYQMEED [MYH7_Y1852_T1854M] | 1.19 | 0.634 | 0.628 | 0.591 | 0.768 | 0.495 | 1.18 | 0.889 | 0.646 | 1.01 | 0.432 | 0.667 | 1.21 | 0.825 | 0.605 | 0.507
19 | IKGIRYLHHQG [GUCY2D_Y656_R660Q] | 0.684 | 0.45 | 0.387 | 0.465 | 0.45 | 0.417 | 0.587 | 0.378 | 0.401 | 0.414 | 0.455 | 0.403 | 0.428 | 0.871 | 0.716 | 0.829
20 | ILCTVYAFKMR [GRM3_Y754_T758M] | 1.46 | 0.97 | 0.568 | 0.503 | 0.89 | 0.553 | 1.47 | 0.567 | 0.55 | 1.09 | 0.47 | 0.883 | 0.65 | 0.979 | 1.1 | 0.718
21 | ILGRFYETSSI [PAX2_Y73_G76S_YF] | 0.66 | 0.516 | 0.47 | 0.417 | 0.463 | 0.887 | 0.813 | 0.399 | 0.531 | 0.665 | 0.472 | 0.606 | 0.47 | 0.85 | 0.792 | 1.02
22 | INITIYGKTFR [EFHC1_Y177] | 1.13 | 0.648 | 0.683 | 0.583 | 0.781 | 0.936 | 1.37 | 0.438 | 0.573 | 1.4 | 0.439 | 1.05 | 0.508 | 1.01 | 0.658 | 0.5
23 | INSLKYAYNVS [EIF2B5_Y583_I587V] | 0.642 | 0.402 | 0.354 | 0.522 | 0.525 | 0.419 | 1.01 | 0.633 | 0.424 | 0.571 | 0.443 | 0.643 | 0.6 | 1.01 | 0.636 | 0.654
24 | IPGVEYLVSII [TNC_Y1775] | 1.02 | 0.667 | 0.574 | 0.552 | 0.723 | 0.445 | 1.14 | 0.432 | 0.491 | 1.19 | 0.409 | 0.664 | 0.5 | 1 | 0.944 | 0.648
25 | IQVDAYFSPIH [ADSL_Y432] | 1.17 | 0.738 | 0.75 | 0.638 | 0.772 | 0.652 | 1.33 | 0.605 | 0.684 | 2.15 | 0.551 | 0.936 | 0.484 | 0.797 | 0.529 | 0.604
26 | IQVNAYFSPIH [ADSL_Y432_D430N] | 1.76 | 0.727 | 0.536 | 0.595 | 0.795 | 0.548 | 1.29 | 0.431 | 0.543 | 2.16 | 0.589 | 1.14 | 0.543 | 0.964 | 1.34 | 0.959
27 | IRKAEYPFSSE [ATP2C1_Y452] | 0.595 | 0.414 | 0.341 | 0.392 | 0.424 | 0.366 | 0.758 | 0.363 | 0.404 | 0.594 | 0.341 | 0.454 | 0.365 | 0.89 | 0.598 | 0.471
28 | ISDDNYGRIRL [ARCN1_Y310_K309N] | 0.554 | 0.521 | 1.21 | 0.407 | 0.428 | 1.32 | 0.516 | 0.704 | 1.83 | 0.525 | 0.344 | 0.402 | 0.885 | 1 | 0.77 | 0.518
29 | ISGGGYRARPA [FGB_Y71] | 0.485 | 0.402 | 0.308 | 0.345 | 0.404 | 0.312 | 0.665 | 0.416 | 0.404 | 0.603 | 0.333 | 0.515 | 0.408 | 0.771 | 0.552 | 0.392
30 | ISGLKYPVSQQ [BTK_Y375_R372G] | 0.529 | 0.501 | 0.529 | 0.428 | 0.459 | 0.371 | 0.548 | 0.441 | 0.448 | 0.516 | 0.474 | 0.392 | 0.407 | 0.879 | 0.63 | 0.417
31 | ISSLDYISKTK [VAV3_Y294] | 0.703 | 0.626 | 0.463 | 0.505 | 0.513 | 0.386 | 0.696 | 0.559 | 0.447 | 0.495 | 0.537 | 0.478 | 0.487 | 0.762 | 0.73 | 0.419
32 | ITKNPYDPPGR | 0.657 | 0.457 | 0.428 | 0.427 | 0.645 | 0.437 | 0.766 | 0.432 | 0.454 | 0.662 | 0.424 | 0.556 | 0.433 | 0.868 | 0.622 | 0.513
33 | IVRSLYKDLED [VHL_Y185_E186K] | 1.25 | 0.497 | 0.559 | 0.502 | 0.688 | 0.688 | 1.19 | 0.535 | 0.479 | 0.877 | 0.496 | 0.691 | 0.445 | 0.999 | 0.716 | 0.785

From the supplement of paper PMC10065799, “High-throughput profiling of sequence recognition by tyrosine kinases and SH2 domains using bacterial peptide display” (eLife, 2023)
